Source: patent US20240043859A1, “HERBICIDE-RESISTANT PROTEIN, AND GENE AND USE THEREOF” (QINGDAO KINGAGROOT CHEMICAL COMPOUND CO., LTD., priority 2020, published 2024)
“Also recorded” adds a separate entry of the source.

B1: QYD43: AAD-like enzyme, SEQ ID NO. 85 (protein)
chain: MRRLHIAPTGATLGATVTGVSLAALDEPTWQAIYRAWLEHALLIFPGQHLSNQQQIGFARRFGAIERIGGGEIVAISNVKADGRVRAHTPAEWDDMMKVIVGNMAWHADSTYMPVMAKGAVFSGELVPTERGETSFADMRAAYDALDQATRALVHQRSAHHSLVYSQSKLGHVPGAQSAYLGYGMDQTTAPLRPLVKVHPETGRQSLLIGRHAHAIPGMDPAESEVFLEGLVEWACQPPRIHTHHWTAGDVVLWDNRCLLHRAMPWDLAQPRVMWHSRLAGDPVAEAALPPVAPAAATH
modifications: Synthetic polypeptide, QYD43, D43
B2: QYD49: AAD-like enzyme, SEQ ID NO. 97 (protein)
chain: MARTFDIEPLAGTTFGAVVRGMKVAILDDAGWRDLYAAWLKYALLVFPGQHLKRDEQIAFAKRFGALEFEMAALSNVKSDGTLRQEKDNDDMMKILKGNMGWHADSTYMPVQAKGAVFSAEIVPGAGGQTGFADMRAAYDALDAGRKAKVERLAAHHSLHYSQSKLGHQTKKQDGEYSGYGLHDGPVPLRPLVKTHPETGRKSLLIGRHAHNIPGMDKAESERLLQELVDFACQPPRVYHHDWTAGDAVVWDNRCLLHQATPWDMTQPRVMWHSRIAGDPRSEAALGVTAVSAAASG
modifications: Synthetic polypeptide, QYD49, D49
B3: QYD47: AAD-like enzyme, SEQ ID NO. 93 (protein)
chain: MATRLEIKPLDATFGAVVTGIKLAEIDEATWRELHATWLKYALLVFPGQFLKRDQQIAFAKHFGPLEFEMAAISNVKSDGTLRIEKDNDDVMKILKGNMGWHADSTYMPVQAKGAVFSAEEVPTVGGQTGWADMRAAYDALDDARRARVETLQAYHSLHYSQSKLGHETRKSDGEYSGYGLHNGPIPLRPLVKTHPETGRKSLLIGRHAHDIPGMDREESQSFLEELVDFACRPPRIYHHDWAAGDAVVWDNRCLLHQATPWDMTQRRIMWHSRIAGDPASESALAA
modifications: Synthetic polypeptide, QYD47, D47
B4: QYD44: AAD-like enzyme, SEQ ID NO. 87 (protein)
chain: MARAFDIAPLDATFGAVVTGVKLAEVDDAGWCDLHAAWLEHALLVFPDQHLTRAQQIAFARRFGPLEFEMAAISNVRPDGSLRVESDNDDMMKILKGNMGWHADSTYMPVQAKGAVFSAEVVPGSGGQTGFADMRAAYDALDENLKARVETLQARHSLHYSQSKLGHETKTADGEYSGYGLHDGPVPLRPLVKVHPETGRKSLLIGRHAHAIPGMERAESERLLQQLIDFACQPPRVYHHDWAPGDAVLWDNRCLLHQATPWDMTQKRIMWHSRIAGDPASETALAGAGP
modifications: Synthetic polypeptide, QYD44, D44
B5: QYD46: AAD-like enzyme, SEQ ID NO. 91 (protein)
chain: MARAFYITPLDATFGAVVTGVKLVDLDDAGWRELHAAWLQYALLVFPGQYLKRDQQIAFARRFGPLEFEMVAISNVRSDGTLRVEKDNDDVMKILKGNMGWHADSTYMPVQAKGAVFSAEVVPTIGGHTGFADMRAAYDALDDVRKARVENLQARHSLHYSQSKLGHETKKSDGEYHGYGLHDGPVPLRPLVKTHPETGRKSLLIGRHAHAIPGMDGPESEAFLQELIDFACQPPRIYHHDWAAGDAVLWDNRCLLHQATPWDMTQKRIMWHSRIAGDPASESALAH
modifications: Synthetic polypeptide, QYD46, D46
B6: QYD48: AAD-like enzyme, SEQ ID NO. 95 (protein)
chain: MTDRLEIKPLDATFGAVVTGIRLAEIDEPTWRELHATWLKYALLVFPGQHLQRDQQIAFAKRFGPLEFEMAAISNVKSDGTLRIEEDNDDMMKILKGNMGWHADSTYMPVQAKGAVFSAEEVPTIGGQTGWADMRAAYDALDEARKAQIESLQAYHSLHYSQSQLGHQTGKSDGEYSGYGLHDGPVPLRPLVKTHPETGRKSLLIGRHAHNIPGMDRDEARRLLEGLIDFACQPPRIYHHDWAAGDAVVWDNRCLLHQATPWDMTQRRIMWHSRIAGDPASESALAA
modifications: Synthetic polypeptide, QYD48, D48
B7: QYD45: AAD-like enzyme, SEQ ID NO. 89 (protein)
chain: MARPFDIAPLDATFGAIVTGVKLAGLDEACWRALHAAWLQYALLVFPNQHLARVEQIAFAKRFGPLEFEMAAISNVRADGSLRVETDNDDMMKILKGNMGWHADSTYMPVQAKGAVFSAEVVPTIGGQTGFADMRAAYDALDEDLKARVETLQAYHSLHYSQSRLGHETKKADGEYSGYGLHDGPVPLRPLVKTHPETGRKSLLIGRHAHAIPGMEPGESERFLQELIDFACQPPRVYRHNWAPGDAVLWDNRCLLHQATPWDMTQKRIMWHSRIAGDAAGETALAH
modifications: Synthetic polypeptide, QYD45, D45

How the values were obtained:
[1] = Chromogenic reaction of degrading herbicides in bacteria: triclopyr; format: cell-based, Escherichia coli; settings: recombinant E. coli expressing the gene
Procedure: To transform the plasmids to be tested, an AAD12-expressing plasmid and a blank control plasmid pET15b were respectively transformed into the protein expression E. coli BL21(DE3) strains. A monoclone was selected and inoculated in a 10 ml centrifuge tube with 3 ml LB medium, and cultivated at 37° C., 200 rpm for 6-8 hours. […] The temperature was switched to 28° C. and the cultivation continued overnight. In the next morning, 200 μL of each bacteria solution was taken and centrifuged to precipitate thallus, 180 μL of the supernatant was taken and added in a 96-well plate, and 20 μL of borate buffer of pH 10 was added. Then the mixture was added with 2 μL of 8% potassium ferricyanide and mixed well, followed by adding 2 μL of 2% 4-aminoantipyrine, and placed at room temperature for 5 min to observe the color and detect the A510 value. […]

Arabidopsis thaliana [2] = assay: Herbicide resistance of transgenic Arabidopsis thaliana seedlings on plate medium (root growth); format: in vivo; settings: for Resistance of transgenic Arabidopsis thaliana: 2,4-D / Resistance of transgenic Arabidopsis thaliana: MCPA: Arabidopsis overexpressing the gene
How it was run: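 After 3 days of cold treatment at 4 °C, seeds were cultured at 22 °C under a 16 h/8 h light cycle on MS herbicide medium (0.3 μM 2,4-D in the screen). Root growth was scored against wild-type seedlings at one week. The material was T2 AAD-overexpressing lines (AtUbi10 promoter, MAS terminator, hygromycin marker), two events each, tested with 2,4-D, 2,4-DB sodium and MCPA.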

[3] = format: cell-based, Escherichia coli
Arabidopsis thaliana [4] = assay: Herbicide resistance of transgenic Arabidopsis thaliana seedlings on plate medium (root growth); format: in vivo; settings: plate medium with 2,4-D (0.3 μmol)
[5] = Chromogenic reaction of degrading herbicides in bacteria: 2,4-D; format: cell-based, Escherichia coli; settings: recombinant E. coli expressing the gene, 2,4-D added to the medium, red = phenols
How it was run: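 Colour from 2,4-D degradation was detected at A510 after 5 min at room temperature, with 4-aminoantipyrine and ferricyanide added to culture supernatant in pH 10 borate. Cultures were AAD12-expressing or empty-vector (pET15b) BL21(DE3), grown overnight at 28 °C with 0.5 mM 2,4-D, 0.1 mM IPTG and 2 mM α-ketoglutarate.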

| Molecule | Chromogenic reaction of degrading herbicides in bacteria: Triclopyr [1] | Chromogenic reaction of degrading herbicides in bacteria: Triclopyr ([1]; listed as D43) | Resistance of transgenic Arabidopsis thaliana: 2,4-D (Arabidopsis thaliana [2]) | Resistance of transgenic Arabidopsis thaliana: MCPA (Arabidopsis thaliana [2]) | Chromogenic reaction of degrading herbicides in bacteria: MCPA [3] | 2,4-D resistance of T1 generation transgenic seedlings (seminal root growth) (Arabidopsis thaliana [4]) | Chromogenic reaction of degrading herbicides in bacteria: 2,4-D [5] | Chromogenic reaction of degrading herbicides in bacteria: 2,4-D ([5]; listed as D43) | Chromogenic reaction of degrading herbicides in bacteria: 2,4-D ([5]; listed as D49) | Chromogenic reaction of degrading herbicides in bacteria: Triclopyr ([1]; listed as D47) | Chromogenic reaction of degrading herbicides in bacteria: 2,4-D ([5]; listed as D47) | Chromogenic reaction of degrading herbicides in bacteria: 2,4-D ([5]; listed as D44) | Chromogenic reaction of degrading herbicides in bacteria: Triclopyr ([1]; listed as D46) | Chromogenic reaction of degrading herbicides in bacteria: 2,4-D ([5]; listed as D46) | Chromogenic reaction of degrading herbicides in bacteria: Triclopyr ([1]; listed as D48) | Chromogenic reaction of degrading herbicides in bacteria: 2,4-D ([5]; listed as D48) | MCPA resistance of T1 generation transgenic seedlings (Arabidopsis thaliana [2]; plate medium with MCPA (0.1 μmol)) | 2,4-DB sodium resistance of T2 generation transgenic plants (Arabidopsis thaliana [2]; plate medium, 2,4-DB sodium (0.7 μmol), two events per transformant) | MCPA resistance of T2 generation transgenic plants (Arabidopsis thaliana [2]; plate medium, MCPA (0.1 μmol), two events per transformant) | Chromogenic reaction of degrading herbicides in bacteria: 2,4-D ([5]; listed as D45) |
| --- | --- | --- | --- | --- | --- | --- | --- | --- | --- | --- | --- | --- | --- | --- | --- | --- | --- | --- | --- | --- |
| B1 | Yes | slight degradation | Yes | Yes | Yes | showing tolerance to 2,4-D | Yes | could degrade 2,4-D; also recorded: capable of degrading 2,4-D |  |  |  |  |  |  |  |  |  |  |  |  |
| B2 |  |  | Yes | Yes | Yes | showing tolerance to 2,4-D | Yes |  | could degrade 2,4-D; also recorded: capable of degrading 2,4-D |  |  |  |  |  |  |  |  |  |  |  |
| B3 | Yes |  | Yes | Yes | Yes | showing tolerance to 2,4-D | Yes |  |  | slight degradation | could degrade 2,4-D; also recorded: capable of degrading 2,4-D |  |  |  |  |  |  |  |  |  |
| B4 |  |  | Yes | Yes | Yes | showing tolerance to 2,4-D | Yes |  |  |  |  | could degrade 2,4-D; also recorded: capable of degrading 2,4-D |  |  |  |  |  |  |  |  |
| B5 | Yes |  | Yes | Yes | Yes | showing tolerance to 2,4-D | Yes |  |  |  |  |  | slight degradation | could degrade 2,4-D; also recorded: capable of degrading 2,4-D |  |  |  |  |  |  |
| B6 | Yes |  | Yes | Yes | Yes | showing tolerance to 2,4-D | Yes |  |  |  |  |  |  |  | slight degradation | could degrade 2,4-D; also recorded: capable of degrading 2,4-D |  |  |  |  |
| B7 |  |  | Yes | Yes | Yes | showing tolerance to 2,4-D; also recorded: lower resistance | Yes |  |  |  |  |  |  |  |  |  | obvious resistance | obvious resistance | obvious resistance | could degrade 2,4-D; also recorded: capable of degrading 2,4-D |
